Experimental findings from patent US10946092 (BEIJING MABWORKS BIOTECH, dated 2021) are described below.

The target in test [1] is T1, recombinant human LAG3(ECD)-his (Sino Biological, Cat #: 16498-H08H) (human, UniProt P18627 23-450).
T1 construct: extracellular domain; Bought protein; not shown: his tag
T1 sequence (looked up): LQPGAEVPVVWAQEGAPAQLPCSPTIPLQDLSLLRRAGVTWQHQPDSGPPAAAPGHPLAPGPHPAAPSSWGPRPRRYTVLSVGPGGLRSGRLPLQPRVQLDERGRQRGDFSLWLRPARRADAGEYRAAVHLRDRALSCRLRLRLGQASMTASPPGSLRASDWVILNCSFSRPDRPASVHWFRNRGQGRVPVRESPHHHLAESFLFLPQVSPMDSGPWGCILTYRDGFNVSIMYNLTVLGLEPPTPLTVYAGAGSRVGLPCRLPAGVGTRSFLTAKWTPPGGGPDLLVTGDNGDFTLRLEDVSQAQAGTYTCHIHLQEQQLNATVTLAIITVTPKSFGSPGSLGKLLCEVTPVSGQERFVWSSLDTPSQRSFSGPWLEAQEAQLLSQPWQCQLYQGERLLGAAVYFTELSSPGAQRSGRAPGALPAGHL
The test is described as follows: ELISA, coated human LAG3(ECD)-his. Here is the method:
The wells were blocked with 200 µl of blocking buffer (PBS containing 1% BSA, 1% goat serum, and 0.05% Tween 20) for 2 hours at room temperature, and then 100 µl of serially diluted anti-LAG3 antibodies (starting from 40 µg/ml) were added to each well and incubated for 1 hour at RT. Plates were washed for 3 times with PBST (PBS+0.05% Tween 20), added with Goat-anti-mouse IgG-HRP (Sigma, US, Cat #: A9309-1 ml) diluted 5000×, and incubated for 1 hour at RT. Plates were developed with freshly prepared Ultra-TMB (BD, US, Cat #:555214) for 5 minutes at RT. Absorbance was read on a SpectraMaxR i3X (Molecular Devies, US) at 450 nm.
(ELISA stands for enzyme-linked immunosorbent assay.)

For test [2], the target named is T2, recombinant monkey LAG3(ECD)-hFc (ACRO, Cat #: LA3-05252) (monkey (rhesus), UniProt A0A5F8A874 23-450).
T2 construct: Bought protein; also called rhesus LAG3(ECD)-hFc; rh LAG3(ECD)-hFc; not shown: human Fc (hFc) and any linker
T2 sequence: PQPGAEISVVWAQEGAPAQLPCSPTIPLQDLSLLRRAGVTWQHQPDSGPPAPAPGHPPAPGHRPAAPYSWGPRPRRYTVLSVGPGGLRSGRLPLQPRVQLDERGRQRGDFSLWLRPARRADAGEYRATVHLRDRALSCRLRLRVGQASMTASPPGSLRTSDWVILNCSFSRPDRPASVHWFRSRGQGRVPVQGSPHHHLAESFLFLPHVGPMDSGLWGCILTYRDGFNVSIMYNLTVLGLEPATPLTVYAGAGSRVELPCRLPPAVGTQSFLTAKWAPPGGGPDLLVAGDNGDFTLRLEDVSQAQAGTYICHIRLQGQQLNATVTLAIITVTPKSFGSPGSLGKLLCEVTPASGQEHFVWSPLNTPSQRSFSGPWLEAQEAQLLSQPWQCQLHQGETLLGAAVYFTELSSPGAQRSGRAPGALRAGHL
Briefly: ELISA, coated monkey LAG3(ECD)-hFc. How it is done: Species-cross-reactivity of the 12 LAG3 mAbs to monkey or mouse LAG3 was further tested by direct ELISA. Briefly, 50 µl of 500 ng/ml monkey LAG3(ECD)-hFc (ACRO, CN, Cat #: LA3-05252) or mouse LAG3-his (Sino Biological, CN, Cat #:53069-M08H) was coated on 96-well ELISA plates followed by incubation with 100 µl of serially diluted anti-LAG3 antibodies (starting from 40 µg/ml). Goat anti-mouse IgG conjugated with HRP (Sigma, US, Cat #: A9309-1 ml) was added then.

In test [3] the target is T3, mouse LAG3 expressed on HEK293A cells (mouse, UniProt Q61790 24-521).
T3 construct: whole, on cells; also called HEK293A/mouse LAG3
T3 sequence (looked up): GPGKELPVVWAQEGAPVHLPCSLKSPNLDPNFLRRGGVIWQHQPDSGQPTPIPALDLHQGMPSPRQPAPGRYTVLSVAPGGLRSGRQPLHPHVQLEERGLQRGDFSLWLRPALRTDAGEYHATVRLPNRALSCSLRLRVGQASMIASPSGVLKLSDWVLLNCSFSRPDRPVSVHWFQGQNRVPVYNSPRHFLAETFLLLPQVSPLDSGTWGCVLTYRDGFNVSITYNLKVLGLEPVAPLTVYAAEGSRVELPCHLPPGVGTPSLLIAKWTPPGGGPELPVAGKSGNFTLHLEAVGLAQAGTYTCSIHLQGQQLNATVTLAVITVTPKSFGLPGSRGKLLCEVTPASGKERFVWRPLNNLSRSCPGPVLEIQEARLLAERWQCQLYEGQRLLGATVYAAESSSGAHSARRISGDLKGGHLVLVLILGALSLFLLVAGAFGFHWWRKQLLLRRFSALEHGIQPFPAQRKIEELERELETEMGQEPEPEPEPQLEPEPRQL
The test is described as follows: FACS on HEK293A/mouse LAG3 cells. How it is done: (§1) Briefly, 10^5 HEK293A cells in 50 μl PBS buffers were seeded into each well of the 96-well plates and then added with 50 μl of serially diluted anti-LAG3 antibodies (5-fold dilution, starting from 40 μg/ml). After incubated at 4° C. for 1 hour, plates were washed 3 times with PBST. Then, an APC coupled Goat Anti-Mouse IgG (BioLegend, US, Cat #: 405308) diluted 500× was added to the plates. After incubation at 4° C. for 1 hour, the plates were washed with PBS for 3 times and then cell fluorescence was monitored using a FACS machine (BD).

In test [4] the target is T4, human LAG3 expressed on HEK293A cells (human, UniProt P18627 23-525).
T4 construct: whole, on cells; also called HEK293A/human LAG3
T4 sequence (looked up): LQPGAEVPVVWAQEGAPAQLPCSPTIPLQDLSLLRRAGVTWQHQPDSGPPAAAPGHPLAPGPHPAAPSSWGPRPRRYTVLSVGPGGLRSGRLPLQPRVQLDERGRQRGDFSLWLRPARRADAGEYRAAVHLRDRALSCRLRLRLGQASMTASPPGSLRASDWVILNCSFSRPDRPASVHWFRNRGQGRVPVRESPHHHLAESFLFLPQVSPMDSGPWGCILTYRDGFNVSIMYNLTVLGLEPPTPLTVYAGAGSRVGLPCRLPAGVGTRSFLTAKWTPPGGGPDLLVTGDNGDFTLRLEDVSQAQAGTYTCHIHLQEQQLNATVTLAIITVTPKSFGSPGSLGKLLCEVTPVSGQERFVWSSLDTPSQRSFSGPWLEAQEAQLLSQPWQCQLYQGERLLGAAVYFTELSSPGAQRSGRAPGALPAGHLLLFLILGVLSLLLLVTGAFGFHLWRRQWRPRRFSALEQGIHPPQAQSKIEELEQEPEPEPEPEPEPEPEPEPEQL
Briefly: FACS on HEK293A/human LAG3 cells. Here is the method: as §1

B1: mouse anti-LAG3 monoclonal antibody 101F4 (antibody, V domains shown)
VH: EVQLEQSGAELVRPGASVTLSCKASGYTFTDYEMHWVKQTPVYGLEWMGAIDPETGGIVYNQRFKGKAILTADKSSSTAYMELRSLTSEDSAVYYCTGAGWGYWGQGTTLTVSS
VL: DIVITQSPSSMYASLGERVTITCKASQDINSYLSWFQQKPGKSPKTLIYRANRLLDGVPSRFSGSGSGQDYSLTISSLEFEDMGLYYCLQYDEFPFTFGSGTKLEIK
Take B1: the half-maximal effective concentration (EC50) (in general, the midpoint of the concentration-response curve) in test [1] stood at 4 nM; in test [2] it was 2.3 nM; in test [4] it was 0.36 nM. Further, the binding result in test [3] was “no binding (tested: starting from 40 µg/ml)”.

B2: mouse anti-LAG3 monoclonal antibody 134G10 (antibody, V domains shown)
VH: EVQLVESGGDLVKPGGSLKLSCAASGFTFSSFGMSWVRQTPDKRLEWVGIISSGGTYTFYPDILKGRFTISRDNAKNTLYLQMSSLKSEDTAMYYCARVYSDYDGRFDYWGQGTTLTVSS
VL: DIVMTQSPSSLSVSAGEKVTMNCKSSQSLLNSGNQKNYLAWYQQKPGQPPKLLIYGASTRESGVPDRFTGSGSGTDFTLTISSVQAEDLAVYYCQNDHSYPLTFGAGTKLELK
For B2, the EC50 in test [1] was 1.92 nM; in test [2], 0.23 nM; in test [4], 8.6 nM. Further, in test [3], the binding result is “no binding (tested: starting from 40 µg/ml)”.
